In US20220411487A1:
Blank lines part the entries; values can stand above or below the substance they belong to.

What was measured:
[1] = target: full length cynomolgous monkey TMPRSS6 on HEK293 cells (HEK293/mfTMPRSS6) (cynomolgous monkey/Macaca fascicularis); experiment: flow cytometry, HEK293 cells expressing target
[2] = target: full length mouse TMPRSS6 on HEK293 cells (HEK293/mTMPRSS6) (mouse) (UniProt Q9DBI0); experiment: flow cytometry, HEK293 cells expressing target
[3] = target: full length human TMPRSS6 on HEK293 cells (HEK293/hTMPRSS6) (human) (UniProt Q8IU80); experiment: flow cytometry, HEK293 cells expressing target
Chain of full length human TMPRSS6 on HEK293 cells (HEK293/hTMPRSS6) (human) (Q8IU80 10-811 limits assumed): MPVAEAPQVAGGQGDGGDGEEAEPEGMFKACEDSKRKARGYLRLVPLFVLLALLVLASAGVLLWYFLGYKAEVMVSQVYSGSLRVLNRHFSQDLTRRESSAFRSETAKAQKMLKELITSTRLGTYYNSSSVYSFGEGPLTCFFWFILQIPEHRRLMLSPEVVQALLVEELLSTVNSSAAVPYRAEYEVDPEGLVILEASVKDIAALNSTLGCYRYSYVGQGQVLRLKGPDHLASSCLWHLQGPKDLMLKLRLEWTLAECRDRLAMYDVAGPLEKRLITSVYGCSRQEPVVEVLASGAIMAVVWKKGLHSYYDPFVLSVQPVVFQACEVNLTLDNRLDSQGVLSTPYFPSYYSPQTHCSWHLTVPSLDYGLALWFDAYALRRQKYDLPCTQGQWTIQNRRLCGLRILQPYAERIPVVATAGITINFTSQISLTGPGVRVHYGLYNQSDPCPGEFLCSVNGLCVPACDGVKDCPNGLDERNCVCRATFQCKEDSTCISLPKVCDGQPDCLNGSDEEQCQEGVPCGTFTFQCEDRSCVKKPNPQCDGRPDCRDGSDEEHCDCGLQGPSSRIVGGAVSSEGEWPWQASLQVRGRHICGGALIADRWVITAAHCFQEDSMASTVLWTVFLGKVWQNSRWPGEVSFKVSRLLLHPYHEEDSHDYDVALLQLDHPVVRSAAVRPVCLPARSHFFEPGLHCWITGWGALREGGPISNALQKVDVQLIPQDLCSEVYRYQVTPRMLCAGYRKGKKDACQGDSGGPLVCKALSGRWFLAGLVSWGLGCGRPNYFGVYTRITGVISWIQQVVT

[4] = target: catalytically inactive full length human TMPRSS6 on HEK293 cells (HEK293/hTMPRSS6 (S762A)) (human) (UniProt Q8IU80); experiment: flow cytometry, HEK293 cells expressing target
Chain of catalytically inactive full length human TMPRSS6 on HEK293 cells (HEK293/hTMPRSS6 (S762A)) (human) (Q8IU80 10-811 S762A): as the sequence (Q8IU80 10-811 limits assumed) above, with S753A counted along it

[5] = target: full length cynomolgous monkey TMPRSS6 on HEK293 cells (HEK293/mfTMPRSS6) (cynomolgous monkey/Macaca fascicularis); experiment: flow cytometry, HEK293 cells expressing target, secondary alone
[6] = target: full length mouse TMPRSS6 on HEK293 cells (HEK293/mTMPRSS6) (mouse) (UniProt Q9DBI0); experiment: as above
[7] = target: full length human TMPRSS6 on HEK293 cells (HEK293/hTMPRSS6) (human) (UniProt Q8IU80); experiment: as above
[8] = target: catalytically inactive full length human TMPRSS6 on HEK293 cells (HEK293/hTMPRSS6 (S762A)) (human) (UniProt Q8IU80); experiment: as above
[9] = target: full-length mouse TMPRSS6 with a C-terminal triple myc tag on HEK293.hHJV cells (HEK293.hHJV/3xMyc.mTMPRSS6) (mouse) (UniProt Q9DBI0); experiment: cell-based or functional assay
[10] = target: full length human TMPRSS6 with a C-terminal triple myc tag on HEK293.hHJV cells (HEK293.hHJV/3xMyc.hTMPRSS6) (human) (UniProt Q8IU80); experiment: cell-based or functional assay

Chain of full length cynomolgous monkey TMPRSS6 on HEK293 cells (HEK293/mfTMPRSS6) (cynomolgous monkey/Macaca fascicularis) (Q8IU80 other isoform, or with tags, fused parts or gaps): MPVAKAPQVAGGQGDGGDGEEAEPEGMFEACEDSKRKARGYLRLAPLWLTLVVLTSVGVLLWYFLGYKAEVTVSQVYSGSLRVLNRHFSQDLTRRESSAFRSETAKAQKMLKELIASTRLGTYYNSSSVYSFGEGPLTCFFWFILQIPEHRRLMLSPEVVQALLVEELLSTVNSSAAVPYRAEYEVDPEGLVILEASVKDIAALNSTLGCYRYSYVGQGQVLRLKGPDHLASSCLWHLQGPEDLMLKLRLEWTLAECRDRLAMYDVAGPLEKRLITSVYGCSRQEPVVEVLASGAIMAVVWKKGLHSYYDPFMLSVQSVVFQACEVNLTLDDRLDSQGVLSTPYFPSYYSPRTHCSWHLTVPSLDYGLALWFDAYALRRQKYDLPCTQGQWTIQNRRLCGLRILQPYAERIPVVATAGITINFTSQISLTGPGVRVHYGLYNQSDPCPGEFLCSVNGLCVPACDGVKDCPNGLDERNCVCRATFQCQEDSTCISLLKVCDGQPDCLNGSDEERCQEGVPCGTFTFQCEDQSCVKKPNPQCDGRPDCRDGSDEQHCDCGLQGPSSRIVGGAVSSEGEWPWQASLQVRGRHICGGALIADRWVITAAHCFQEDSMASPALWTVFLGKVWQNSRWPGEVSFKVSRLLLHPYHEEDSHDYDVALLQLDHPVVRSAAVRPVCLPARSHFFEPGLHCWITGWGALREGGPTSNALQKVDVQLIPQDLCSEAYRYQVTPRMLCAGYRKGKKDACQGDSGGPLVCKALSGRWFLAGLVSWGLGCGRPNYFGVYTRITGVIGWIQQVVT
Chain of full length mouse TMPRSS6 on HEK293 cells (HEK293/mTMPRSS6) (mouse) (Q9DBI0 whole entry): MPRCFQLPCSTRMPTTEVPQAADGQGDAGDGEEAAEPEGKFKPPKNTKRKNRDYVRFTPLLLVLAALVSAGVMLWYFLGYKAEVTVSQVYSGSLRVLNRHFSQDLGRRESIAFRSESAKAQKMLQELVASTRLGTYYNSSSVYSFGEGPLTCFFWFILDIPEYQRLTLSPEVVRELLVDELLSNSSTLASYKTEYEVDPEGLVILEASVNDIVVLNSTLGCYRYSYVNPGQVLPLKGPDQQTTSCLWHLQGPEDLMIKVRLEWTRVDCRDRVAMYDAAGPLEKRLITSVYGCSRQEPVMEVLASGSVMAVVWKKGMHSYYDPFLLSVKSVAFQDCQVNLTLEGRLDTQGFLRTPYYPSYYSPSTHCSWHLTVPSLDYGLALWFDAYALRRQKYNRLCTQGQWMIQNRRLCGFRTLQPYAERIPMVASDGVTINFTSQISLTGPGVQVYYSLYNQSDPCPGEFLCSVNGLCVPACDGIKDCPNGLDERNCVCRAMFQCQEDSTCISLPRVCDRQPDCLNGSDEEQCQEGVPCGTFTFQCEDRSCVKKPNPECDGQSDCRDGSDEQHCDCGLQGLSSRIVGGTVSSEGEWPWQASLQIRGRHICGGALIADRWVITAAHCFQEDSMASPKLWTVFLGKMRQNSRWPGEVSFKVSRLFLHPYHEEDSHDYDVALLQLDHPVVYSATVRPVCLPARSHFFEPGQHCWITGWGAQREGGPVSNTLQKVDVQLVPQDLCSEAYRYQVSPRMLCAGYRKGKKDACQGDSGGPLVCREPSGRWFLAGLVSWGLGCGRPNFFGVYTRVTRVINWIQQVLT

Max. Fold Binding (fold over unstained control) [1]: 1
Max. Fold Binding (fold over unstained control) [2]: 1
Max. Fold Binding (fold over unstained control) [3]: 1
Max. Fold Binding (fold over unstained control) [4]: 3
Substance: hIgG Subclass Control (antibody)

Max. Fold Binding (fold over unstained control) [5]: 1
Max. Fold Binding (fold over unstained control) [6]: 1
Max. Fold Binding (fold over unstained control) [7]: 1
Max. Fold Binding (fold over unstained control) [8]: 2
Substance: Alexa Fluor-647 conjugated anti-human secondary antibody (Jackson ImmunoResearch #109-607-003)

Geometric Mean Fluorescence Intensity of cell surface hHJV [9]: 7750
Inhibition (%) of soluble hHJV release (ELISA) [9]: 5.2%
Median Fluorescence Intensity of cell surface hHJV [9]: 7230
Geometric Mean Fluorescence Intensity of cell surface hHJV [10]: 11700
Inhibition (%) of soluble hHJV release (ELISA) [10]: 15.7%
Median Fluorescence Intensity of cell surface hHJV [10]: 13000
Substance: Isotype Control (antibody)
